Laboratory results reported in the supplement of paper PMC10201428.
± gives the standard deviation of the averaged measurements.

Key:
[1] = system: VchCAST RNA-guided transposition machinery (E. coli BL21(DE3) host, lacZ target); assay: relative integration efficiency (T-LR orientation) vs wild-type transposon end (log2 (normalized fold change)); transposon end mutated: right end (5 bp flank + 75 bp right end); higher = more efficient transposition
Method in brief: (§1)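 Each barcoded pool, 1549 left-end or 1849 right-end transposon variants in a pUC57 mini-transposon donor, went into E. coli BL21(DE3) with a T7-driven effector plasmid (CRISPR array, tniQ-cas8-cas7-cas6, tnsA-tnsB-tnsC). Plates contained 0.1 mM IPTG and were held at 37°C for 18 h. Input plasmids and genomic integration junctions were PCR-amplified and read by Illumina sequencing, with two biological output replicates and four reference barcodes. Relative integration efficiency is the fold change of output over input barcode abundance, normalised to the reference barcodes and log-transformed.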

[2] = system: VchCAST RNA-guided transposition machinery (E. coli BL21(DE3) host, lacZ target); assay: relative integration efficiency (T-RL orientation) vs wild-type transposon end (log2 (normalized fold change)); transposon end mutated: right end (5 bp flank + 75 bp right end); higher = more efficient transposition
Method in brief: as §1

ACATTTGTTGATACACCCATAAATTGATATTGCCAACCATATATTGATATCTCTCACACCCATAAATTGATATTGCCTCTGATCATAGTCAGACCAACATTGCTACGACCCGTATTCGCACCGACAC
relative integration efficiency (log2) [1]: -0.587 ± 0.35 | relative integration efficiency (log2) [2]: -1.11 ± 0.06

ACATTTGTTGATACACCCATAAATTGATATTGCCAACCATATATTGATATCTCTCAGTGGGTATTTAACTATAACGCTCTGATCATAGTCAGACCAACATTGCTACGACCCGTATTCGCACCGACAC
relative integration efficiency (log2) [1]: 2.26 ± 0.088 | relative integration efficiency (log2) [2]: -1.7 ± 0.32

ACATTTGTTGATACACCCATAAATTGATATTGCCACCCATAAATTGATAATTATCACAACCATAAAATGATAATTACTCTGATCATAGTCAGACCAACATTGCTACGACCCGTATTCGCACCGACAC
relative integration efficiency (log2) [1]: -0.453 ± 0.047 | relative integration efficiency (log2) [2]: -0.382 ± 0.087

ACATTTGTTGATACACCCATAAATTGATATTGCCACCCATAAATTGATAATTATCACAACCATAAAGTGATATTTACTCTGATCATAGTCAGACCAACATTGCTACGACCCGTATTCGCACCGACAC
relative integration efficiency (log2) [1]: -0.376 ± 0.6 | relative integration efficiency (log2) [2]: -0.75 ± 0.089

ACATTTGTTGATACACCCATAAATTGATATTGCCACCCATAAATTGATAATTATCACAACCATAAGTTGATATTTTCTCTGATCATAGTCAGACCAACATTGCTACGACCCGTATTCGCACCGACAC
relative integration efficiency (log2) [1]: -0.238 ± 0.32 | relative integration efficiency (log2) [2]: -0.676 ± 0.16

ACATTTGTTGATACACCCATAAATTGATATTGCCACCCATAAATTGATAATTATCACAACCATATATTGATATCTCCTCTGATCATAGTCAGACCAACATTGCTACGACCCGTATTCGCACCGACAC
relative integration efficiency (log2) [1]: -0.478 ± 0.18 | relative integration efficiency (log2) [2]: -1.14 ± 0.14

ACATTTGTTGATACACCCATAAATTGATATTGCCACCCATAAATTGATAATTATCACACCCATAAATTGATAATTACTCTGATCATAGTCAGACCAACATTGCTACGACCCGTATTCGCACCGACAC
relative integration efficiency (log2) [1]: -0.0383 ± 0.28 | relative integration efficiency (log2) [2]: -0.597 ± 0.26

ACATTTGTTGATACACCCATAAATTGATATTGCCACCCATAAATTGATAATTATCACACCCATAAATTGATATTGCCTCTGATCATAGTCAGACCAACATTGCTACGACCCGTATTCGCACCGACAC
relative integration efficiency (log2) [1]: -0.216 ± 0.095 | relative integration efficiency (log2) [2]: -0.842 ± 0.076

ACATTTGTTGATACACCCATAAATTGATATTGCCACCCATAAATTGATAATTATCAGTGGGTATTTAACTATAACGCTCTGATCATAGTCAGACCAACATTGCTACGACCCGTATTCGCACCGACAC
relative integration efficiency (log2) [1]: 2.03 ± 0.071 | relative integration efficiency (log2) [2]: -1.42 ± 0.14

ACATTTGTTGATACACCCATAAATTGATATTGCCACCCATAAATTGATATTGCTCACAACCATAAAATGATAATTACTCTGATCATAGTCAGACCAACATTGCTACGACCCGTATTCGCACCGACAC
relative integration efficiency (log2) [1]: -0.156 ± 0.22 | relative integration efficiency (log2) [2]: -0.874 ± 0.16

ACATTTGTTGATACACCCATAAATTGATATTGCCACCCATAAATTGATATTGCTCACAACCATAAAGTGATATTTACTCTGATCATAGTCAGACCAACATTGCTACGACCCGTATTCGCACCGACAC
relative integration efficiency (log2) [1]: 0.0649 ± 0.043 | relative integration efficiency (log2) [2]: -0.811 ± 0.21

ACATTTGTTGATACACCCATAAATTGATATTGCCACCCATAAATTGATATTGCTCACAACCATAAGTTGATATTTTCTCTGATCATAGTCAGACCAACATTGCTACGACCCGTATTCGCACCGACAC
relative integration efficiency (log2) [1]: -0.179 ± 0.051 | relative integration efficiency (log2) [2]: -1.05 ± 0.16

ACATTTGTTGATACACCCATAAATTGATATTGCCACCCATAAATTGATATTGCTCACAACCATATATTGATATCTCCTCTGATCATAGTCAGACCAACATTGCTACGACCCGTATTCGCACCGACAC
relative integration efficiency (log2) [1]: 0.239 ± 0.14 | relative integration efficiency (log2) [2]: -1.05 ± 0.22

ACATTTGTTGATACACCCATAAATTGATATTGCCACCCATAAATTGATATTGCTCACACCCATAAATTGATAATTACTCTGATCATAGTCAGACCAACATTGCTACGACCCGTATTCGCACCGACAC
relative integration efficiency (log2) [1]: 0.226 ± 0.19 | relative integration efficiency (log2) [2]: -1.21 ± 0.15

ACATTTGTTGATACACCCATAAATTGATATTGCCACCCATAAATTGATATTGCTCACACCCATAAATTGATATTGCCTCTGATCATAGTCAGACCAACATTGCTACGACCCGTATTCGCACCGACAC
relative integration efficiency (log2) [1]: 0.0807 ± 0.15 | relative integration efficiency (log2) [2]: -0.939 ± 0.095

ACATTTGTTGATACACCCATAAATTGATATTGCCACCCATAAATTGATATTGCTCAGTGGGTATTTAACTATAACGCTCTGATCATAGTCAGACCAACATTGCTACGACCCGTATTCGCACCGACAC
relative integration efficiency (log2) [1]: 2.19 ± 0.12 | relative integration efficiency (log2) [2]: -1.66 ± 0.34

ACATTTGTTGATACATCCATAAAATGATAATTACAGCCATAAATTGATAATTATCACAGCCATAAATTGATATTGCCTCTGATCATAGTCAGACCAACATTGCTACGACCCGTATTCGCACCGACAC
relative integration efficiency (log2) [1]: -0.607 ± 0.2 | relative integration efficiency (log2) [2]: -0.851 ± 0.072

ACATTTGTTGATACATGCATAAAATGATAATTACACCCATAAATTGATAATTATCACACCCATAAATTGATATTGCCTCTGATCATAGTCAGACCAACATTGCTACGACCCGTATTCGCACCGACAC
relative integration efficiency (log2) [1]: -0.66 ± 0.08 | relative integration efficiency (log2) [2]: -0.321 ± 0.046

ACATTTGTTGATACATGGTTAAAATGATAATTACACCCATAAATTGATAATTATCACACCCATAAATTGATATTGCCTCTGATCATAGTCAGACCAACATTGCTACGACCCGTATTCGCACCGACAC
relative integration efficiency (log2) [1]: -2.05 ± 0.37 | relative integration efficiency (log2) [2]: -1.62 ± 0.088

ACATTTGTTGATACCACCATAAAATGATAATTACACCCATACATTGATAATTATCACACCCAATTTAACTATAACGCTCTGATCATAGTCAGACCAACATTGCTACGACCCGTATTCGCACCGACAC
relative integration efficiency (log2) [1]: 0.947 ± 0.23 | relative integration efficiency (log2) [2]: -2.1 ± 0.38

ACATTTGTTGATACCACCATAAAATGATAATTACACCCCTAAATTGATAATTATCACACCCAATTTAACTATAACGCTCTGATCATAGTCAGACCAACATTGCTACGACCCGTATTCGCACCGACAC
relative integration efficiency (log2) [1]: 0.973 ± 0.2 | relative integration efficiency (log2) [2]: -2.41 ± 0.33

ACATTTGTTGATACCACCATAAAATGATAATTACACCCCTACATTGATAATTATCACACCCAATTTAACTATAACGCTCTGATCATAGTCAGACCAACATTGCTACGACCCGTATTCGCACCGACAC
relative integration efficiency (log2) [1]: -0.284 ± 0.22 | relative integration efficiency (log2) [2]: -3.75 ± 0.28

ACATTTGTTGATACCACCATAAAATGATAATTACCCCCATAAATTGATAATTATCACCCCCATAAATTGATATTGCCTCTGATCATAGTCAGACCAACATTGCTACGACCCGTATTCGCACCGACAC
relative integration efficiency (log2) [1]: 1.35 ± 0.29 | relative integration efficiency (log2) [2]: 0.364 ± 0.15

ACATTTGTTGATACCACCATAAAATGATAATTCCACCCATAAATTGATAATTATCACACCCAATTTAACTATAACGCTCTGATCATAGTCAGACCAACATTGCTACGACCCGTATTCGCACCGACAC
relative integration efficiency (log2) [1]: 2.52 ± 0.15 | relative integration efficiency (log2) [2]: -1.1 ± 0.17

ACATTTGTTGATACCACCATAAAATGATAATTCCACCCATACATTGATAATTATCACACCCAATTTAACTATAACGCTCTGATCATAGTCAGACCAACATTGCTACGACCCGTATTCGCACCGACAC
relative integration efficiency (log2) [1]: 0.789 ± 0.33 | relative integration efficiency (log2) [2]: -2.81 ± 0.42

ACATTTGTTGATACCACCATAAAATGATAATTCCACCCCTAAATTGATAATTATCACACCCAATTTAACTATAACGCTCTGATCATAGTCAGACCAACATTGCTACGACCCGTATTCGCACCGACAC
relative integration efficiency (log2) [1]: 0.417 ± 0.16 | relative integration efficiency (log2) [2]: -2.92 ± 0.31

ACATTTGTTGATACCACCATAAAATGATAATTCCACCCCTACATTGATAATTATCACACCCAATTTAACTATAACGCTCTGATCATAGTCAGACCAACATTGCTACGACCCGTATTCGCACCGACAC
relative integration efficiency (log2) [1]: -0.121 ± 0.44 | relative integration efficiency (log2) [2]: -3.78 ± 0.24

ACATTTGTTGATACCACCATAAAATGGTAATTACACCCATAAATTGATAATTATCACACCCAATTTAACTATAACGCTCTGATCATAGTCAGACCAACATTGCTACGACCCGTATTCGCACCGACAC
relative integration efficiency (log2) [1]: 2.15 ± 0.17 | relative integration efficiency (log2) [2]: -1.38 ± 0.13

ACATTTGTTGATACCACCATAAAATGGTAATTACACCCATACATTGATAATTATCACACCCAATTTAACTATAACGCTCTGATCATAGTCAGACCAACATTGCTACGACCCGTATTCGCACCGACAC
relative integration efficiency (log2) [1]: 0.455 ± 0.2 | relative integration efficiency (log2) [2]: -2.87 ± 0.24

ACATTTGTTGATACCACCATAAAATGGTAATTACACCCCTAAATTGATAATTATCACACCCAATTTAACTATAACGCTCTGATCATAGTCAGACCAACATTGCTACGACCCGTATTCGCACCGACAC
relative integration efficiency (log2) [1]: -0.273 ± 0.24 | relative integration efficiency (log2) [2]: -3.42 ± 0.33

ACATTTGTTGATACCACCATAAAATGGTAATTACACCCCTACATTGATAATTATCACACCCAATTTAACTATAACGCTCTGATCATAGTCAGACCAACATTGCTACGACCCGTATTCGCACCGACAC
relative integration efficiency (log2) [1]: -0.988 ± 0.042 | relative integration efficiency (log2) [2]: -4.23 ± 0.31

ACATTTGTTGATACCACCATAAAATGGTAATTCCACCCATAAATTGATAATTATCACACCCAATTTAACTATAACGCTCTGATCATAGTCAGACCAACATTGCTACGACCCGTATTCGCACCGACAC
relative integration efficiency (log2) [1]: 2.06 ± 0.076 | relative integration efficiency (log2) [2]: -1.38 ± 0.23
